Measurements reported in US20140178329A1 (INSTITUCIO CATALANA DE RECERCA I ESTUDIS AVANCATS ICREA, published 2014).
Blank lines part the entries; values can stand above or below the binder they belong to. No end group written: not given here.

B1: FLAG-tagged wild-type soluble APRIL (amino acid 105 to 250) (ligand)
chain: AVLTQKQKKQHSVLHLVPINATSKDDSDVTEVMWQPALRRGRGLQAQGYGVRIQDAGVYLLYSQVLFQDVTFTMGQVVSREGQGRQETLFRCIRSMPSHPDRAYNSCYSAGVFHLHQGDILSVIIPRARAKLNLSPHGTFLGFVKL
notes: Used as conditioned medium of transfected 293T cells, not purified; also called WT; WT APRIL; not shown: FLAG tag
B3: mouse TACI-Fc (R&D Systems) (Fc fusion, UniProt Q9ET35 5-129, looked up)
chain: FCPKDQYWDSSRKSCVSCALTCSQRSQRTCTDFCKFINCRKEQGRYYDHLLGACVSCDSTCTQHPQQCAHFCEKRPRSQANLQPELGRPQAGEVEVRSDNSGRHQGSEHGPGLRLSSDQLTLYCT
notes: Bought; also called mTACI-Fc; murine TACI-Fc; not shown: Fc portion of human IgG1
B6: mouse BCMA-Fc (R&D Systems) (Fc fusion, UniProt O88472 2-49, looked up)
chain: AQQCFHSEYFDSLLHACKPCHLRCSNPPATCQPYCDPSVTSSVKGTYT
notes: Bought; also called mBCMA-Fc; murine BCMA-Fc; not shown: Fc portion of human IgG1

Tests used:
human TACI-Fc = biological target: T1, human TACI-Fc (human, UniProt O14836 2-160, limits assumed); test: SPR (Biacore 2000), FLAG-APRIL captured by anti-FLAG M2, receptor-Fc injected, single cycle kinetics, 1:1 fit
T1 construct: Generated in-house; not shown: Fc portion of human IgG1
T1 sequence (looked up): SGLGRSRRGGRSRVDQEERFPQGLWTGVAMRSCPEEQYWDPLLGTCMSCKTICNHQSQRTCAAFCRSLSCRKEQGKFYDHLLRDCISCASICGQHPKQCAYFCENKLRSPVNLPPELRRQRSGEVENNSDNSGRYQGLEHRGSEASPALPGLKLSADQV
Protocol: (§1) FIG. 10: Surface Plasmon Resonance sensorgrams to illustrate binding of TACI-Fc and BCMA-Fc to WT and R206E-APRIL. Sensorgrams of human (Panel A) and mouse (Panel B) receptors binding to WT and R206E-APRIL. Stepwise increments in the curves represent sequential injections of receptor at the following concentrations: […]. In some cases, no value for affinity was calculated due to a low binding response or high drift.
(§2) In order to further assess the binding properties of the mutants and to measure apparent affinities and kinetics of receptor binding, a Surface Plasmon Resonance based receptor binding assay was performed on a Biacore 2000 (GE Healthcare, Diegem, Belgium). Anti-FLAG-M2 monoclonal antibody (Sigma-Aldrich) was diluted at a concentration of 5 μg/ml in 10 mM sodium acetate pH 4.5 and covalently immobilized (approx 1500 RU) to a CM-5 sensor chip (GE Healthcare), using standard amine coupling chemistry according to manufacturer's guidelines (Amine coupling kit, GE Healthcare). The different FLAG-APRIL variants in the form of tissue culture supernatants were captured onto the chip via the FLAG-tag at 10 μl/minute for five minutes, giving capture levels ranging from 159 to 207 RU. As a reference lane, one of the flow cells was left free of soluble FLAG-APRIL, to control for any background binding. BCMA- or TACI-Fc were then injected for three minutes over all four flow cells at 30 μl/minutes at increasing concentrations (ranging from 1-50 nM) using the single cycle kinetics method at 25° C. Dissociation was monitored for five minutes. The resulting curves were fitted using a 1:1 Langmuir model using BIAevaluation software 4.1. For each combination of FLAG-APRIL and BCMA- or TACI-Fc, the apparent kₐ, kd and KD were calculated from a global fit of binding curves from at least three separate experiments. Non-specific binding in the reference cell was subtracted before curve fitting. Regeneration of the anti-FLAG antibody surface was carried out with a 10-minute injection at 30 μl/minute of a mixture of ⅓ volume of TBS pH 11.5, ⅓ volume of Ionic solution and ⅓ volume of water. The Ionic solution was comprised of KSCN (0.46 M), MgCl₂ (1.83 M), urea (0.92 M) and guanidine-HCl (1.83 M).

[1] = biological target: B6; test: receptor-binding ELISA, mouse BCMA-Fc coated, dilution series of conditioned medium, anti-FLAG-HRP, OD 405 nm [TACI selective, Ms BCMA-Fc coated]
Protocol: (§3) The relative binding of the variants to either BCMA or TACI, was tested using a binding ELISA. The following proteins were used: human BCMA-Fc, human TACI-Fc (both generated in-house), mouse BCMA-Fc (R&D Systems, Abingdon, UK), mouse TACI-Fc (R&D Systems); in all cases the Fc portion is from human IgG1. BCMA-Fc and TACI-Fc were coated on 96-well Nunc Maxisorp plates (Thermo Fischer Scientific, Roskilde, Denmark) at concentrations of 1 μg/ml and 2 μg/ml, respectively, in 0.5 M sodium bicarbonate buffer pH 9.5, overnight at 4° C. Plates were then blocked with 5% BSA for one hour at 37° C. Soluble APRIL variants in the form of tissue culture conditioned medium were then added to the plate for two hours at 37° C. Following APRIL binding, plates were washed three times with PBS, 0.05% TWEEN®20. Bound APRIL was detected with 1 μg/ml of HRP-coupled anti-FLAG M2 and visualized with 2,2′-azino-bis(3-ethylbenzothiazoline-6-sulphonic acid (ABTS) (Sigma-Aldrich). The absorbance was read at 405 nm using a UV-VIS microplate reader (BioRad, Veenendaal, The Netherlands).

[2] = biological target: B3; test: receptor-binding ELISA, mouse TACI-Fc coated, dilution series of conditioned medium, anti-FLAG-HRP, OD 405 nm [TACI selective, Ms TACI-Fc coated]
Protocol: as §3

[3] = biological target: B1; test: SPR (Biacore 2000), FLAG-APRIL captured by anti-FLAG M2, receptor-Fc injected, single cycle kinetics, 1:1 fit
Protocol: as §1, §2

[4] = biological target: B3; test: receptor-binding ELISA, mouse TACI-Fc coated [TACI selective, Ms TACI-Fc coated]
Protocol: as §3

[5] = biological target: B6; test: receptor-binding ELISA, mouse BCMA-Fc coated, dilution series of conditioned medium, anti-FLAG-HRP, OD 405 nm [BCMA selective, Ms BCMA-Fc coated]
Protocol: as §3

Binder: B1
- Kd (human TACI-Fc): 3.9 nM
- koff (human TACI-Fc): 0.00041 s⁻¹
- kon (human TACI-Fc): 110000 M⁻¹ s⁻¹

B2: APRIL-H241T (FLAG-tagged soluble variant) (ligand)
chain: AVLTQKQKKQHSVLHLVPINATSKDDSDVTEVMWQPALRRGRGLQAQGYGVRIQDAGVYLLYSQVLFQDVTFTMGQVVSREGQGRQETLFRCIRSMPSHPDRAYNSCYSAGVFHLHQGDILSVIIPRARAKLNLSPTGTFLGFVKL
notes: not shown: FLAG tag
- binding result [1]: binds
- binding result [2]: binds

Binder: B3
- Kd [3]: 4.4 nM
- koff [3]: 0.00075 s⁻¹
- kon [3]: 170000 M⁻¹ s⁻¹

B5: APRIL-D205Y (FLAG-tagged soluble variant) (ligand)
chain: AVLTQKQKKQHSVLHLVPINATSKDDSDVTEVMWQPALRRGRGLQAQGYGVRIQDAGVYLLYSQVLFQDVTFTMGQVVSREGQGRQETLFRCIRSMPSHPYRAYNSCYSAGVFHLHQGDILSVIIPRARAKLNLSPHGTFLGFVKL
notes: Used as conditioned medium; not shown: FLAG tag
- binding result [5]: binds

Binder: B6
- Kd [3]: 0.14 nM
- koff [3]: 0.00013 s⁻¹
- kon [3]: 890000 M⁻¹ s⁻¹

B7: APRIL-T175D (FLAG-tagged soluble variant) (ligand)
chain: AVLTQKQKKQHSVLHLVPINATSKDDSDVTEVMWQPALRRGRGLQAQGYGVRIQDAGVYLLYSQVLFQDVDFTMGQVVSREGQGRQETLFRCIRSMPSHPDRAYNSCYSAGVFHLHQGDILSVIIPRARAKLNLSPHGTFLGFVKL
notes: as for B5
- binding result [5]: binds

B8: R233E (ligand)
soluble APRIL monomer: AVLTQKQKKQHSVLHLVPINATSKDDSDVTEVMWQPALRRGRGLQAQGYGVRIQDAGVYLLYSQVLFQDVTFTMGQVVSREGQGRQETLFRCIRSMPSHPDRAYNSCYSAGVFHLHQGDILSVIIPRAEAKLNLSPHGTFLGFVKL
notes: FLAG-tagged soluble variant used as 293T conditioned medium; predicted TACI-selective; member of group m13; also called APRIL-R233E
- binding result [1]: binds
- binding result [2]: binds

B10: APRIL-D132Y (FLAG-tagged soluble variant) (ligand)
chain: AVLTQKQKKQHSVLHLVPINATSKDDSYVTEVMWQPALRRGRGLQAQGYGVRIQDAGVYLLYSQVLFQDVTFTMGQVVSREGQGRQETLFRCIRSMPSHPDRAYNSCYSAGVFHLHQGDILSVIIPRARAKLNLSPHGTFLGFVKL
notes: as for B5
- binding result [1]: binds

B11: D132A (ligand)
soluble APRIL monomer: AVLTQKQKKQHSVLHLVPINATSKDDSAVTEVMWQPALRRGRGLQAQGYGVRIQDAGVYLLYSQVLFQDVTFTMGQVVSREGQGRQETLFRCIRSMPSHPDRAYNSCYSAGVFHLHQGDILSVIIPRARAKLNLSPHGTFLGFVKL
notes: FLAG-tagged soluble variant used as 293T conditioned medium; predicted TACI-selective; member of group m13; also called APRIL-D132A
- binding result [1]: binds
- binding result [2]: binds

B14: APRIL-R206M (FLAG-tagged soluble variant) (ligand)
chain: AVLTQKQKKQHSVLHLVPINATSKDDSDVTEVMWQPALRRGRGLQAQGYGVRIQDAGVYLLYSQVLFQDVTFTMGQVVSREGQGRQETLFRCIRSMPSHPDMAYNSCYSAGVFHLHQGDILSVIIPRARAKLNLSPHGTFLGFVKL
notes: as for B5
- Kd (human TACI-Fc): 0.32 nM
- koff (human TACI-Fc): 0.00016 s⁻¹
- kon (human TACI-Fc): 490000 M⁻¹ s⁻¹
- binding result [5]: binds

Next, values leading:

- binding result [4]: no binding
- binding result [1]: binds
B4: T175L (ligand)
soluble APRIL monomer: AVLTQKQKKQHSVLHLVPINATSKDDSDVTEVMWQPALRRGRGLQAQGYGVRIQDAGVYLLYSQVLFQDVLFTMGQVVSREGQGRQETLFRCIRSMPSHPDRAYNSCYSAGVFHLHQGDILSVIIPRARAKLNLSPHGTFLGFVKL
notes: FLAG-tagged soluble variant used as 293T conditioned medium; predicted TACI-selective; member of group m13; also called APRIL-T175L

- Kd [3]: 0.38 nM
- koff [3]: 0.0002 s⁻¹
- kon [3]: 530000 M⁻¹ s⁻¹
B9: human BCMA-Fc (Fc fusion, UniProt Q02223 2-54, looked up)
chain: LQMAGQCSQNEYFDSLLHACIPCQLRCSSNTPPLTCQRYCNASVTNSVKGTNA
modifications: cysteine pairing not given here; also: fused to human IgG1 Fc, construct limits, linker and order not given here
notes: Generated in-house; not shown: Fc portion of human IgG1

- binding result [1]: binds
B12: APRIL-D132F (FLAG-tagged soluble variant) (ligand)
chain: AVLTQKQKKQHSVLHLVPINATSKDDSFVTEVMWQPALRRGRGLQAQGYGVRIQDAGVYLLYSQVLFQDVTFTMGQVVSREGQGRQETLFRCIRSMPSHPDRAYNSCYSAGVFHLHQGDILSVIIPRARAKLNLSPHGTFLGFVKL
notes: as for B5

- binding result [1]: binds
- binding result [2]: binds
B13: R233A (ligand)
soluble APRIL monomer: AVLTQKQKKQHSVLHLVPINATSKDDSDVTEVMWQPALRRGRGLQAQGYGVRIQDAGVYLLYSQVLFQDVTFTMGQVVSREGQGRQETLFRCIRSMPSHPDRAYNSCYSAGVFHLHQGDILSVIIPRAAAKLNLSPHGTFLGFVKL
notes: FLAG-tagged soluble variant used as 293T conditioned medium; predicted TACI-selective; member of group m13; also called APRIL-R233A

- binding result [4]: no binding
- binding result [1]: binds
B15: T175F (ligand)
soluble APRIL monomer: AVLTQKQKKQHSVLHLVPINATSKDDSDVTEVMWQPALRRGRGLQAQGYGVRIQDAGVYLLYSQVLFQDVFFTMGQVVSREGQGRQETLFRCIRSMPSHPDRAYNSCYSAGVFHLHQGDILSVIIPRARAKLNLSPHGTFLGFVKL
notes: FLAG-tagged soluble variant used as 293T conditioned medium; predicted TACI-selective; member of group m13; also called APRIL-T175F

- binding result [4]: no binding
- binding result [1]: binds
B16: T175Y (ligand)
soluble APRIL monomer: AVLTQKQKKQHSVLHLVPINATSKDDSDVTEVMWQPALRRGRGLQAQGYGVRIQDAGVYLLYSQVLFQDVYFTMGQVVSREGQGRQETLFRCIRSMPSHPDRAYNSCYSAGVFHLHQGDILSVIIPRARAKLNLSPHGTFLGFVKL
notes: FLAG-tagged soluble variant used as 293T conditioned medium; predicted TACI-selective; member of group m13; also called APRIL-T175Y
